The nature of this data set: yeast display, Sf9 membrane polyspecificity reagent, FACS + sequencing; frameworks hold sequencing errors. An outline of the steps:
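Synthetic nanobody libraries on Saccharomyces cerevisiae BJ5465 were galactose-induced for 36–48 hours, stained 1 hour at 4 °C with 10% biotinylated, detergent-solubilized Sf9 membrane reagent and enriched on streptavidin microbeads. FACS then separated cells into low and high (top ~1%) gates by anti-HA (expression) and streptavidin (reagent binding) fluorescence. Genes were colony-PCR amplified, MiSeq 2 × 250 sequenced and CDR-length filtered. A clone's polyreactivity label is that of its gate of origin.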
In the case of “QVQLVESGGGLVQAGGSLRLSSAASGSIFRYNAMGWYRQAPGKERELFAAISYRGGRTYYADSVKGRFTISRDNAKNTVYLQMNSLKPEDTAVYYCNADSIYSARGWLYGYWGQGTQVTVSS”, the “polyreactivity (PSR sort gate)” value is reported as “low polyreactivity”. As to “QVQLVESGGGLVQAGGSLRLSSAASGSIFSQNAMVWYTQAPGKERELVASISSGDSTTYADSVKGRFTISRDNAKNTVYLQMNSLKPEDTAVYYCNAYRYNALPWRYVGYDYWGQGTQVTVSS”, the “polyreactivity (PSR sort gate)” value is given as “low polyreactivity”.

Regarding “QVQLVESGGGLVQAGGSLRLSSAASGSIFYGNSMGWYRQAPGKERELVAAISQSGGSTYYADSVKGRFTISRDNAKNTVYLQMNSLKPEDTAVYYCAAYTPYATWRYDYWGQGTQVTVSS”, the “polyreactivity (PSR sort gate)” value is “low polyreactivity”. Regarding “QVQLVESGGGLVQAGGSLRLSSAASGSIFYRYAMGWYRQAPGKERELVAVISRGGSTNYADSVKGRFTISRDNAKNTVYLQMNSLKPEDTAVYYCAAGGYSKGDYWGQGTQVTVSS”, the “polyreactivity (PSR sort gate)” value was “high polyreactivity”.

Turning to “QVQLVESGGGLVQAGGSLRLSSAASGSILPYYAMGWYRQAPGKESELVATITSRGGSTYYADSVKGRFTISRDNAKNTVYLQMNSLKPEDTAVYYCAKEYRYYRRRYDYCGQGTQVTVSS”, the “polyreactivity (PSR sort gate)” value is “high polyreactivity”.

Take “QVQLVESGGGLVQAGGSLRLSSAASGSILTINAMGWYRLAPGKERELVARITISSGSTYYADSVKGRFTISRDNAKNTVYLQLNSLKPEDTAVYYCAKLRYPYLFWDDSEYWGQGTQVTVSS”: the “polyreactivity (PSR sort gate)” value is listed as “low polyreactivity”.

“QVQLVESGGGLVQAGGSLRLSSAASGSNFPTNAMGWYRQAPGKETELVAAITDGGSTNYADSVKGRFTISRDNAKNTVYLQMNSLKPEDTAVYYCAAVGFKTVLPEYDYWGKGTQVTVSS”: the “polyreactivity (PSR sort gate)” value is recorded as “low polyreactivity”.

As for “QVQLVESGGGLVQAGGSLRLSSAASGSTFFLYGMRWYSQPPGKERQLVAAITWNGGSTSYADSVKGRFTISRDIAKFTVYLQMNSLKPEDTAVYYWAADYYGYFSTAYEYWGQGTQVTVSS”, the “polyreactivity (PSR sort gate)” value is “low polyreactivity”. Turning to “QVQLVESGGGLVQAGGSLRLSSAASGSTFFSYAMGWYRQAPGKERELVAAISWIDDGTYYADSVKGRFTISRDNAKNTVYLQMNSLKPEDTAVYYCAADIGAYRTWDYEYWGQGTQVTVSS”, the “polyreactivity (PSR sort gate)” value is on record as “low polyreactivity”. For “QVQLVESGGGLVQAGGSLRLSSAASGSTFGPYAMGWYRQAPGKERELVAAISRRGTSTYYADSVKGRFTISRDNAKNTVYLQMNSLKPEDTAVYYCNAVTSSFFNRDSDYWGQGNQVTVSS”, the “polyreactivity (PSR sort gate)” value is on record as “high polyreactivity”. Take “QVQLVESGGGLVQAGGSLRLSSAASGSTFPVYALGWYRQAPGKERELVAAITRTGARTYYADSVKGRFTISRDNAKNTVYLQMNSLTPEDTAVYYCAARGAGGILGRYGYWGQGTKVTVSS”: the “polyreactivity (PSR sort gate)” value is “high polyreactivity”. Turning to “QVQLVESGGGLVQAGGSLRLSSAASGSTFRRNAMGWYRQAPGKQRELVAAITWRGTSTYYADSVKGRFTISRDNAKNTVYLQMNSLKPEDTAVDYCAAPWVVRRTAYDYWGQGTQVTVSS”, the “polyreactivity (PSR sort gate)” value is reported as “high polyreactivity”. The entry for “QVQLVESGGGLVQAGGSLRLSSAASGSTIFLYDMGWYRQAPGKERELVAAITISGGSTYYADSVKGRFTISRDNAKNTVYLQMNSLKPEDTAVYYCAVRTYRFRHWPKYDYWGQGTQVTVSS” is “high polyreactivity”; for “QVQLVESGGGLVQAGGSLRLSSAASGSTVPRYAMGWDRQAPGKERAFVAVIWSGGSTYYAVSVKGRFTISRDNAKNTVYLQMNSLKPEDTAVYYCAAEYHTLSKYSGYATHDYWGQGTQVTVSS” it is “low polyreactivity”. “QVQLVESGGGLVQAGGSLRLSSAASGTTFAPNAMGWYRPAPGKERELVAAISSGGDSTNYADSVKGRFTISRDNAKNTVYLQLNSLKPEDTAVYYCAAHYVEREYDYWGQGTQVTVSS”: the “polyreactivity (PSR sort gate)” value is given as “low polyreactivity”. Take “QVQLVESGGGLVQAGGSLRLSSAASRSTFTVYAMGWYRQAPGKETELVAAITGGGRTYYADSVKGRFTISRDNAKNTVYLQMNSLKPEDTAVYYCAKKYSWRYARVYSLHFDYWGQGTQVTVSS”: the “polyreactivity (PSR sort gate)” value is listed as “high polyreactivity”. As to “QVQLVESGGGLVQAGGSLRLSSADSGRTFRYYAMRWYRPAPGKERELVAAITRGGRTNYADSVKGRFTISRDNAKNTVYLQMNSLKPEDTAVYYCAAVLYTPNKYASYYWGQGTQVTVSS”, the “polyreactivity (PSR sort gate)” value is on record as “high polyreactivity”. On to “QVQLVESGGGLVQAGGSLRLSSAPSGSTFYGYSRGWYRPAPGKERELVAAISSRGGSTKYADSVKGRFTISRDNAKNTVYLQMNSLKPEDTAVYYCAATSRSSRRYYYWGQGTQVTVSS”, for which the “polyreactivity (PSR sort gate)” value is “high polyreactivity”. Consider “QVQLVESGGGLVQAGGSLRLSSASSGRIFPDNTMGWYRQAPGKERELVAVITYSGGSTYYADSVKGRFTISRDNAKNTVYLQMNSLKPDDTAVYYCAARDYYIWFAEVDYWGQGTQVTVSS”, for which the “polyreactivity (PSR sort gate)” value is on record as “low polyreactivity”. Regarding “QVQLVESGGGLVQAGGSLRLSSASSGSIFTDNGMGCYRHAPGKESELVAAISWRGGTYYADSVKGRFTISRDNAKNTVYLQMNSLKPEDSAVYYSAADVLRISTRLFRGPGFDSWGQGTQVTVSS”, the “polyreactivity (PSR sort gate)” value was “low polyreactivity”. “QVQLVESGGGLVQAGGSLRLSSASSGSIIFLYTMGWYRQAPGKERELVAAIDSVGSTNYADSVKGRFTISRDNAKNTVYLHMNSLKPEDTAVYYCNAYFWVGLYEYDYWGQGTQVTVSS”: the “polyreactivity (PSR sort gate)” value is given as “low polyreactivity”.

For “QVQLVESGGGLVQAGGSLRLSSPASGYIISTYVMGWYRQAPGKERDLVAAITRSGGSTYYADSVKGRFTISRDNAKNNVYLQMNSLKPEDTAVYYCNAYLYLYGLSGRYDYWGQGTQVTVSS”, the “polyreactivity (PSR sort gate)” value is recorded as “high polyreactivity”. With “QVQLVESGGGLVQAGGSLRLSVAASGRTFYSYSMGWYRQAHGKERELVASITNGETKNYADSVKGRFTISRDNAKNTVYLQMNSLKPEDTAVYYCAADDSSRTTYDYWGQGTQVTVSS”, the “polyreactivity (PSR sort gate)” value is reported as “low polyreactivity”.

Take “QVQLVESGGGLVQAGGSLRLSWAASGFIFDPNAMGWYRQAPGKERDLVAAISSSGGRTYYADSVKGRFTISRDNAKNTVYLQMNSLKPEDTAVYYCATDTSVQGQEYDYWGQGTQVTVSS”: the “polyreactivity (PSR sort gate)” value was “low polyreactivity”. Turning to “QVQLVESGGGLVQAGGSLRLSWAASGGTFVPYAMGWYRQAPGTERELVARISKRGGTTYYADSVKGRFTISRDNAKYTVYLQMNSLKPEDTAVYYCAAVLPARGYYWGQGTQVTVSS”, the “polyreactivity (PSR sort gate)” value is recorded as “high polyreactivity”. As to “QVQLVESGGGLVQAGGSLRLSWAASGITFDLYAMGWYRPAPGKEREFVATISWTGGTTYYADSVKGRFTISRDNAKNTVDLQMISLKPEVPAASYCNKGSDFFWYDYDYCGQGTQVTVSS”, the “polyreactivity (PSR sort gate)” value is recorded as “low polyreactivity”.

On to “QVQLVESGGGLVQAGGSLRLSWAASGRIFASYAMGWYRQATGKERELVAAISGSGGSTYYADSVKGRFTMSRDNAKKTVYLQLNSLKPEDTAVYYCAARYRSYWYRYVGYDYWGQGTQVNVSS”, for which the “polyreactivity (PSR sort gate)” value is “high polyreactivity”. Regarding “QVQLVESGGGLVQAGGSLRLSWAASGRTFQYYTMGWYRQAPGKERELVAAISTGGSTHYADSVKGRFTISRDNAKNTVYLQMNSLKPEDTAVYYCAALWSRRRSRPRFPGDYWGQGTQVTVSS”, the “polyreactivity (PSR sort gate)” value is reported as “high polyreactivity”.

On to “QVQLVESGGGLVQAGGSLRLSWAASGSIFYQNPMGSYRQAPGKERELVAAISSAGSTYYADSVKGRFTISRDNAKNTVYLQMNSLKPADTAVYYCAADDLGWWFYSGGEDYYYWGQATQVTVSS”, for which the “polyreactivity (PSR sort gate)” value is recorded as “low polyreactivity”.

In the case of “QVQLVESGGGLVQAGGSLRLSWAASGSISGFNAMGWYRQAPGKERELVAAISYSGGRTYYADSVKGRFTISRDNAKNNVYLHMNSLKPEDTAVFYCAADKFMYSKYTVFRDVYWGQGTQVTLSS”, the “polyreactivity (PSR sort gate)” value is “high polyreactivity”. In the case of “QVQLVESGGGLVQAGGSLRLSWAASGSTFAWYAMGWYRQAPGKDRELVATISSGGSTYYADSVKGRFTISRDNAKNTVYLQMNSLKTEDTAVYYCAADYLTPWVYWFSYGLDYWGQGTQVTVSS”, the “polyreactivity (PSR sort gate)” value was “low polyreactivity”. In the case of “QVQLVESGGGLVQAGGSLRLSWAASGSTFAYNDMGWYRQAPGKERELVASITSGGSTNYADSVKGRFTISRDNAKNTVYLQMNSLKPEDTAVYYCAARVRYRFDYWGQGTQVTVSS”, the “polyreactivity (PSR sort gate)” value is recorded as “low polyreactivity”. On to “QVQLVESGGGLVQAGGSLRLSWAASGSTFNVYAMGWYRQAPGKERELVAGIRDSDGSTNYADSVKGRFTISRDNAKNTVYLQMNSLKPEDTAVYYCAADLYDINWSVWLDYWGQGTQVTVSS”, for which the “polyreactivity (PSR sort gate)” value is “low polyreactivity”.

For the sequence “QVQLVESGGGLVQAGGSLRLSWAASGSTFVVNAMGWYRQAPGKERELVAAITQDGDGTYYADSVKGRFTISRDNAKNTVYLQMNSLKPEDTAVYYCAAYPFYGPYDEFDYWGQGTEVTVSS”, the “polyreactivity (PSR sort gate)” value is reported as “low polyreactivity”. “QVQLVESGGGLVQAGGSLRLSWAASSIFRTYAMGWYRQAPGKERELVAAITWSGASTNYADSVKGRFTISRDNAKNTVYLQMNSLKPEDTAVYYCNADWRYYPSFKYYYWGQGTQVTVSS”: the “polyreactivity (PSR sort gate)” value was “high polyreactivity”. With “QVQLVESGGGLVQAGGSLRLSYAASGSTFRVYAMGWYRPATGKERELVAAISRSGGRTYYADSVKGRFTISRDNAKNTVYLQMNSLKPEDTAVYYCAADYKYTAVSDDYWGQGTQVTVSS”, the “polyreactivity (PSR sort gate)” value is “high polyreactivity”. Regarding “QVQLVESGGGLVQAGGSLRLTCAASGFIFGYNAMGWYRQAPGKERELVAAISSSGGSTYYADSVKGRFTISRDNAKNTVSLQMNSLKPEDTAVYYCAARPVALRKYDYWGQGTQVTVSS”, the “polyreactivity (PSR sort gate)” value is “low polyreactivity”. For “QVQLVESGGGLVQAGGSLRLTCAASGFIFRYYAMGWYRQAHGKEMELVAAIDYSGGSTNYADSVKGRFTISRDNSKNTVYLQMNSLKPEDTAVYYCKAEYTWHRGYDYWGLGTQVTVSS”, the “polyreactivity (PSR sort gate)” value is listed as “low polyreactivity”.

For the sequence “QVQLVESGGGLVQAGGSLRLTCAASGFTFNRYTMGWYRQAPGKERELVAAITRSGGSTYYADSVKGRFTISRDNAKNTVDLQMNSLKPEDTAVYYCAAPSYLVAGYGYWGQGTQVTLSS”, the “polyreactivity (PSR sort gate)” value is on record as “high polyreactivity”. Consider “QVQLVESGGGLVQAGGSLRLTCAASGFTFPSYPMVWYRQAPGKERELVAAITRSGVRTYYADSVKGRFTISRDNAKNTVYFQMNSLKPEDTAVYYCAAVYPRQVSQVWRDDFWGQGTQVTVSS”, for which the “polyreactivity (PSR sort gate)” value was “high polyreactivity”. With “QVQLVESGGGLVQAGGSLRLTCAASGFTFRYYAMGWYRQAPGKERELVASITGGGRTYYADSVKGRFTISRDNAKNTVYLQMNSLKPEDTAVYYCATLLAYRLGSGYDSWGQGTEVTVSS” the entry was “high polyreactivity”.

These data come from the nanobody polyreactivity screen of Harvey et al. (2022).
